Measured values as given in publication PMC3072108 (Cell, 2011).

Molecular target: ubiquitin (UniProt P0CG48 1-76)
Experiment: NMR titration

Binder	Kd
UBC-domain of Ube2S (domain or fragment) MNSNVENLPPHIIRLVYKEVTTLTADPPDGIKVFPNEEDLTDLQVTIEGPEGTPYAGGLFRMKLLLGKDFPASPPKGYFLTKIFHPNVGANGEICVNVLKRDWTAELGIRHVLLTIKCLLIHPNPESALNEEAGRLLLENYEEYAARARLLTEIHG	1110 ± 80 µM
Ube2S (enzyme, UniProt Q16763 1-222, looked up) MNSNVENLPPHIIRLVYKEVTTLTADPPDGIKVFPNEEDLTDLQVTIEGPEGTPYAGGLFRMKLLLGKDFPASPPKGYFLTKIFHPNVGANGEICVNVLKRDWTAELGIRHVLLTIKCLLIHPNPESALNEEAGRLLLENYEEYAARARLLTEIHGGAGGPSGRAEAGRALASGTEASSTDPGAPGGPGGAEGPMAKKHAGERDKKLAAKKKTDKKRALRRL	1700 ± 80 µM
